A short description of this data set: protein stability index of a GFP-peptide fusion (yeast GPS) (PSI 1-4); higher = more stable; sorted into four equal gates, so the index is relative within each strain. In outline: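 Plasmids in a pooled yeast library fused tiled 17-residue yeast protein peptides downstream of GFP and also expressed Cherry. Mid-log cultures grown without leucine were sorted into four equal gates by GFP/Cherry fluorescence ratio. Each gate's plasmids were PCR-amplified and Illumina-sequenced, and reads were matched to strains by barcodes. The protein stability index is derived by multiplying each gate's read frequency by its gate number and summing the results.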

± gives the uncertainty stated by the source.

Regarding LPIESQFVSKLVDNLNA [BRR2], the protein stability index is, setting by setting: (doa10∆) 2.32 ± 0.052; (pdr5∆) 2.34 ± 0.049; (san1∆) 2.5 ± 0.072; (ubr1∆) 2.4 ± 0.059.

Turning to RAVKEIKKFAKLHMGTD [RPL31A], the protein stability index (doa10∆) was 1.7 ± 0.036, the protein stability index (pdr5∆) was determined as 1.32 ± 0.041, the protein stability index (san1∆) was found to be 1.23 ± 0.061 and the protein stability index (ubr1∆) came out at 1.58 ± 0.035.

Turning to VSTAAAATVRSTIRRLR [RPL43A], the protein stability index (doa10∆) was 2.54 ± 0.076, the protein stability index (pdr5∆) was determined as 2.8 ± 0.07, the protein stability index (san1∆) worked out at 2.13 ± 0.1 and the protein stability index (ubr1∆) was found to be 2.95 ± 0.057.

In the case of LKSLNDIETQLCSMLQE [MED11], the protein stability index reads like this: (doa10∆) 2.54 ± 0.084; (pdr5∆) 2.91 ± 0.079; (san1∆) 2.73 ± 0.11; (ubr1∆) 3 ± 0.059.

For the sequence LNHRNKNQHRAASWYGS [RMP1], the protein stability index (doa10∆) turned out to be 2.86 ± 0.092, the protein stability index (pdr5∆) was 3.31 ± 0.07, the protein stability index (san1∆) was 3.17 ± 0.056 and the protein stability index (ubr1∆) turned out to be 3.06 ± 0.044.

For HEEDQKTNIIEKAMDYA [RPN12], the protein stability index reads like this: (doa10∆) 2.52 ± 0.087; (pdr5∆) 2.75 ± 0.078; (san1∆) 2.37 ± 0.084; (ubr1∆) 3.02 ± 0.096.

For the sequence SYRNGMASYMLNSFAFE [YJR042W/NUP85], the protein stability index was 2.29 ± 0.09 (doa10∆), 2.45 ± 0.11 (pdr5∆), 2.6 ± 0.1 (san1∆) and 3.01 ± 0.084 (ubr1∆).

For CRNINRKHRNAQFAGRA [DIS3], the protein stability index was 2.54 ± 0.11 (doa10∆), 2.78 ± 0.071 (pdr5∆), 2.18 ± 0.22 (san1∆) and 2.92 ± 0.086 (ubr1∆).

Turning to VDFEKFETFLVDVNNKF [SIN4], the protein stability index came to 3.23 ± 0.07 (doa10∆), 3.34 ± 0.059 (pdr5∆), 3.51 ± 0.037 (san1∆) and 3.31 ± 0.052 (ubr1∆).

With QHEQQKQQEQLEQQKQP [YMR153W/NUP53], the protein stability index is, setting by setting: (doa10∆) 3.37 ± 0.056; (pdr5∆) 3.35 ± 0.057; (san1∆) 3.04 ± 0.049; (ubr1∆) 3.15 ± 0.046.

Turning to NEIKQLGSDSSDGHNSE [SRB4], the protein stability index is, setting by setting: (doa10∆) 2.6 ± 0.072; (pdr5∆) 2.8 ± 0.084; (san1∆) 2.31 ± 0.078; (ubr1∆) 3 ± 0.09.

Turning to PLRENTNVLDVKDKEED [YDL116W/NUP84], the protein stability index is 3.07 ± 0.082 (doa10∆), 3.11 ± 0.1 (pdr5∆), 3.25 ± 0.065 (san1∆) and 2.99 ± 0.11 (ubr1∆).

Turning to SASLKKIQQHNTILNSS [BRR2], the protein stability index by setting is: (doa10∆) 2.65 ± 0.052; (pdr5∆) 2.93 ± 0.055; (san1∆) 2.79 ± 0.032; (ubr1∆) 2.81 ± 0.041.

Consider ATEVTPQEPKHIQEEEE [RPC19], for which the protein stability index by setting is: (doa10∆) 3.24 ± 0.081; (pdr5∆) 3.23 ± 0.09; (san1∆) 3.14 ± 0.056; (ubr1∆) 3.37 ± 0.079.

As for AFVPKKRKTNIIMFVGL [SRP54], the protein stability index turned out to be 2.03 ± 0.1 (doa10∆), 2.16 ± 0.088 (pdr5∆), 1.86 ± 0.18 (san1∆) and 2.26 ± 0.051 (ubr1∆).

For the sequence DSDELGGESMEGPKKCI [SNM1], the protein stability index (doa10∆) stood at 3.38 ± 0.086, the protein stability index (pdr5∆) is 3.51 ± 0.086, the protein stability index (san1∆) came out at 3.39 ± 0.076 and the protein stability index (ubr1∆) was found to be 3.4 ± 0.071.

For DKLKVYKQAMNETSEQL [SNF5], the protein stability index was determined as 3.17 ± 0.11 (doa10∆), 3.39 ± 0.15 (pdr5∆), 3.13 ± 0.12 (san1∆) and 3.11 ± 0.11 (ubr1∆).

For LAMNDDDFLSKKRKAGR [SNF2], the protein stability index reads like this: (doa10∆) 3.41 ± 0.11; (pdr5∆) 3.58 ± 0.084; (san1∆) 3.16 ± 0.1; (ubr1∆) 3.52 ± 0.091.

As to LTNILRMMGCVKKQKSA [FAS2], the protein stability index was 1.91 ± 0.068 (doa10∆), 2.1 ± 0.078 (pdr5∆), 1.81 ± 0.12 (san1∆) and 1.35 ± 0.066 (ubr1∆).

The record behind these values is the supplement of paper PMC9732359.
